Source: the supplement of paper PMC12764529
± gives the half width of the 95% confidence interval.

Experiment: folding stability dG unfold from trypsin proteolysis; higher = more stable
Procedure, shortened: (§1)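 Digests were run with trypsin and chymotrypsin at 11 concentrations in threefold dilutions, plus a no-protease condition, on designed mini-proteins in a PA-tagged cDNA display construct. The mini-proteins were under 80 residues, had no cysteine, and were kept only when AlphaFold2 dimer inter-PAE was above 15. After sequencing, Bayesian fitting of the counts gave K50, from which unfolding free energy was derived against a sequence-predicted unfolded-state K50 and a shared folded-state K50, per protease or combined.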

| Sequence | folding stability dG unfold [kcal/mol] |
| --- | --- |
| SAGGALKELPDGSVELYYNTETGLFTVRVRHPDKPPLVFTVESPEDALKFAKALEEKGIKIDKVVPAPSAGG [r13_727_TrMRF] | 2.1 ± 0.068 |
| SAGGSAGDLELIGVFPFTLPDGRRITVPIFRDPSTGERYLFAETEGEEEDLTPAAIETALAVLERESAGGSA [r15_529_TrMRF] | 1.87 ± 0.051 |
| SAGNWKIEIKVKHRRTPDGYYRVTARIQIWDPKNGKPLREIPIEGPFDSPEQAERRARKKAKEILKALSAGG [r19_255_TrROS] | 2.97 ± 0.068 |
| SAGGSAGGSAEPDIEVVVTPVPGPYGPLYYRVEVRIPEAGRTVFTYARLDDPEEIEGIPIESAGGSAGGSAG [r3_432_TrMRF] | 0.829 ± 0.066 |
| SAGGSAGGSAGGMTLEELKNLKPGEEVEIEIEVYDKNGKKVSKYRIRIYNDKIEIEKLPSAGGSAGGSAGGS [r10_394_TrROS_Hall] | 2.4 ± 0.057 |
| SAGSRTVTLTFYRPLSRPPGGAPVVREAERTVTLNLPDDTLSEEEIEALAEELRAEHPDVEVEITIDDSAGG [r19_369_JUSTAS] | 0.664 ± 0.049 |
| SAGGSKPLKKIVIPLTPEELKKLKGKKVKITIKVDGKEYEIEFIDGYAVITVPAGEKVEITKIEIESAGGSA [r2_246_TrROS_Hall] | 2.47 ± 0.15 |
| SAGKKKVIIVKVKPEDLEKLLEAIKKLPKEKVKRIEIEVNGKLYLIEVTDKEIKIYDIETGEEKTIKLSAGG [r19_154_TrROS_Hall] | 2.1 ± 0.22 |
| SAGGSAMKPGEPVEFNIMIKIRDPNGKPVGEIDIKVEYPKGQSESQMFDRARNEINNLAPEGHLEISAGGSA [r15_310_TrROS] | 0.0892 ± 0.087 |
| SADDDEEQKEKQKPKPQIPIKPVATYNFPDHPFEIWEIDPDNGRIIIRFWGNGWWYEMDPEDGEWEWYPSAG [r14_359_TrROS] | 1.81 ± 0.064 |
| SAGGMVEIELEVDGKKIKITYDKETGKITIEIDGKKIEVELPEEDKGKSKEELLKKALEKAKEELKKSAGGS [r16_215_TrROS_Hall] | 2.46 ± 0.23 |
| SPVKIRIIVPKGMDPEMANFIVKEIMKHLGLPPGAPVEILPWEDLQKNPDVHQALEEAEKEGADIVILIRSA [r9_1147_TrROS] | 3.08 ± 0.14 |
| SAGGNPDGKPDGGVSFVVNVAKTKPYIDPSTGKVYPVVEVKPVVIEVKKDEKLDLSELLKNTDYISVSSAGG [r13_753_TrMRF] | -0.463 ± 0.14 |
| SAGGSAMPIELDLVIEIPIDAHPDQTVEDLVEEIAERIRRLLPPDTVVELRVHLHPELGVALADVSSAGGSA [r15_739_TrMRF] | 1.56 ± 0.039 |
| SAGGSAGGKLPKNIEKIEFNKKTNIIKVKVKSLEDLKKLAEKLNFEIVSVEEKDGYIYIKIKKKSAGGSAGG [r6_380_TrROS_Hall] | 1.86 ± 0.038 |
| SAGGAPLVPVSTETYTVKDSKGNEVTITIETLPDGSYRITITYPNGEVKEYEFPSKEEAEKLEITVNPSAGG [r13_109_JUSTAS] | 3.63 ± 0.23 |
| SKPTLTLKLTVVVKDENGEKKTVTLTIPVSEEELEKLLKEIAKELGLKDVKVVKIEKNKNGFIKITVEVKSA [r9_1101_TrROS_Hall] | 2.16 ± 0.12 |
| SAGGMIEKIKEAAKKLGLKVKIEEVKFDKKTKKVTIKITLENGKKIEITVEMSEEELLNAIKELIKKSAGGS [r16_153_TrROS_Hall] | 2.52 ± 0.11 |
| SAGGSAGGMPVEVTETPVGTFPDGSTVTRTETVLPGGEVLVETTVTYPDGSSTTTTRRVPPELASAGGSAGG [r6_263_JUSTAS] | 2.39 ± 0.084 |
| SAGGSPIQTAVTTNTLGNETITTTTLVPPEAVATSVTTVYEPDPNSDNYVVKSVLTTTTSTLPPSDAASAGG [r13_568_JUSTAS] | -0.417 ± 0.055 |
| SAGGSPDIKFNEVKVELPTAETEAEFEKNTYKVEVPAPPELDITTTTTLTTSSGSTTTTTSTSPLELPSAGG [r13_191_JUSTAS] | 0.0505 ± 0.06 |

| Sequence | folding stability dG unfold [kcal/mol] |
| --- | --- |
| SAGGSMTITYDPETNTVTILDPNIPPNEPRPVTLTLPDGEKYTLTLRPVPGNGWTGTLTWKSTKDGSAGGSA [r2_89_TrMRF] | 0.911 ± 0.05 |
| SAGGSAGLPEAIAEAIARELQAEPGYELDVEAEVDPETGTLHIRARVRLPDDDTWFELEITVPLPASAGGSA [r15_464_TrMRF] | 1.75 ± 0.084 |
| SAGGSAGGSAGGMPIPIIVIPTPPNGNFTPEQIKEVAEKLNDPVVLTEESDNSRVILVGSAGGSAGGSAGGS [r10_642_TrMRF] | 0.928 ± 0.029 |
| SANPGKPVTIEIPVEEIRQKLNEENPDKPLTPSELKDLAKELIQRQGFPFKDVEIKSVNPGNGWIKIKVSAG [r14_303_TrROS] | 0.871 ± 0.095 |
| SAGGSAEEARALAEQVREEVRAAHAPDEVVTVTVELPDGTRVEVTFDAAGEVLSVTIYRPDGTPELSAGGSA [r2_84_JUSTAS] | 1.04 ± 0.025 |
| MRVVFEATYTDPEGVPVTETFVIPEEVLEEIEREGRPITREELVELAEEIIRDYTKEHDADVEFRFVEFEPS [r1_174_TrMRF] | 1.91 ± 0.086 |
| SAGGSASMARVEAIAEEIAPRLKAEGRPIARIEVTATRLPDGTVVVPITLTTPDGTPVYTFEVVVESAGGSA [r15_232_JUSTAS] | 1.03 ± 0.051 |
| SQVKIHIPFEVEYSPENGNYFFMIRVRYPGKERPIMFPYKDPEQMREWARTIAKELAKENPDNVEIEIWWSA [r9_1148_TrROS] | 2.42 ± 0.038 |
| SAGGDSVYIPGSISEAIDALRENPNKTVHIMSPDGYYIKITVKWDGDGDYKIDIKWQPPPPPPDPEDKSAGG [r13_56_TrROS] | 2.23 ± 0.33 |
| SAGGSAGGSAMTFFVAVVKTETRVLPDGSLETRSSIEVKPVPAIPAEDLIKKLGLPLEDIASAGGSAGGSAG [r3_338_TrMRF] | 2.13 ± 0.041 |
| SAGGSAGGSAIKPGETIPIKIGNFPIKITVYGDWVEITFPNGRKIRFRVAVDDGKLEIDIYFSAGGSAGGSA [r18_172_TrROS] | 4.07 ± 0.24 |
| SAGGSAGGSAKPTFDNVENLSLEELAKKIAKEAAEKYPDAKNVEVEFRLPNGKSYRIVVDVDSAGGSAGGSA [r18_449_TrMRF] | 1.21 ± 0.036 |
| SAGMLSSETVPFPDSEITIEYDPETGTVKITTTTTTSSPSLDYRTGKPGSVSSSTTTSFEVEAEPGAELSAG [r5_195_JUSTAS] | 0.0129 ± 0.076 |
| SAGGFLENLPDEVVEAALAAVLPDGSRVFVALRKGPDRPRVLIITFDANGVPRDIRELDPEEALKALEASAG [r5_73_TrMRF] | 2.48 ± 0.042 |
| SAMKVYEIPIEIPISKYKPSDIIAALKKALDKLNIPFPEEIIKELTIISIKTGGNISTAIKTLLENGLLSAG [r14_364_TrMRF] | 1.69 ± 0.12 |
| SMKISSFTLAPGGEAVIELTFESGETRRVRLTGLTSKAEVEAEAKRLQEELEKGNPRPIKTVTVSPAPPASA [r9_1135_JUSTAS] | 1.14 ± 0.064 |
| SAGGSAGGSAGGMKLVITLKDPNSDKTYTVTLPIEDKSPEEVIQEIEEKLGVEVVEVKPESAGGSAGGSAGG [r7_590_JUSTAS] | 2.06 ± 0.083 |
| SAGGSAKKKKGKKKKKIKKIKIKLKLPPGAEIVKIDKEKGVIYIRNKKTNKIYKIDLKTGKIVEIPSAGGSA [r15_452_TrROS_Hall] | 1.86 ± 0.17 |
| SAGGSAGGSGDGDYKNDPNGEQERKPKPPPVPPILVFKVELDIDANGNLDLSPDLGWFPPDAISAGGSAGGS [r12_1027_TrROS] | 1.55 ± 0.13 |
| SAGGSAGGSAGGATFKPGETVRVEVEVELRVFKVDEETGEIVEETETVTVRVEVEVRLESAGGSAGGSAGGS [r10_122_TrROS_Hall] | 1.87 ± 0.1 |
| SAGGMMKIKITIINENGETLTIEIEVPEEDLEEAIKALEDELKKKGYEIESIERVNGKITITVRIKPSAGGS [r16_662_TrROS_Hall] | 4.03 ± 0.16 |

Experiment: folding stability dG unfold (combined trypsin and chymotrypsin); higher = more stable
Procedure, shortened: as §1

| Sequence | folding stability dG unfold [kcal/mol] |
| --- | --- |
| SAGGALKELPDGSVELYYNTETGLFTVRVRHPDKPPLVFTVESPEDALKFAKALEEKGIKIDKVVPAPSAGG [r13_727_TrMRF] | 2.02 ± 0.14 |
| SAGGSAGDLELIGVFPFTLPDGRRITVPIFRDPSTGERYLFAETEGEEEDLTPAAIETALAVLERESAGGSA [r15_529_TrMRF] | 2.05 ± 0.084 |
| SAGNWKIEIKVKHRRTPDGYYRVTARIQIWDPKNGKPLREIPIEGPFDSPEQAERRARKKAKEILKALSAGG [r19_255_TrROS] | 2.74 ± 0.13 |
| SAGGSAGGSAEPDIEVVVTPVPGPYGPLYYRVEVRIPEAGRTVFTYARLDDPEEIEGIPIESAGGSAGGSAG [r3_432_TrMRF] | 0.7 ± 0.077 |
| SAGGSAGGSAGGMTLEELKNLKPGEEVEIEIEVYDKNGKKVSKYRIRIYNDKIEIEKLPSAGGSAGGSAGGS [r10_394_TrROS_Hall] | 2.71 ± 0.092 |
| SAGSRTVTLTFYRPLSRPPGGAPVVREAERTVTLNLPDDTLSEEEIEALAEELRAEHPDVEVEITIDDSAGG [r19_369_JUSTAS] | 1.18 ± 0.17 |
| SAGGSKPLKKIVIPLTPEELKKLKGKKVKITIKVDGKEYEIEFIDGYAVITVPAGEKVEITKIEIESAGGSA [r2_246_TrROS_Hall] | 2.41 ± 0.22 |
| SAGKKKVIIVKVKPEDLEKLLEAIKKLPKEKVKRIEIEVNGKLYLIEVTDKEIKIYDIETGEEKTIKLSAGG [r19_154_TrROS_Hall] | 2.39 ± 0.56 |
| SAGGSAMKPGEPVEFNIMIKIRDPNGKPVGEIDIKVEYPKGQSESQMFDRARNEINNLAPEGHLEISAGGSA [r15_310_TrROS] | 0.396 ± 0.14 |
| SADDDEEQKEKQKPKPQIPIKPVATYNFPDHPFEIWEIDPDNGRIIIRFWGNGWWYEMDPEDGEWEWYPSAG [r14_359_TrROS] | 2.14 ± 0.14 |
| SAGGMVEIELEVDGKKIKITYDKETGKITIEIDGKKIEVELPEEDKGKSKEELLKKALEKAKEELKKSAGGS [r16_215_TrROS_Hall] | 2.49 ± 0.11 |
| SPVKIRIIVPKGMDPEMANFIVKEIMKHLGLPPGAPVEILPWEDLQKNPDVHQALEEAEKEGADIVILIRSA [r9_1147_TrROS] | 3.84 ± 0.1 |
| SAGGNPDGKPDGGVSFVVNVAKTKPYIDPSTGKVYPVVEVKPVVIEVKKDEKLDLSELLKNTDYISVSSAGG [r13_753_TrMRF] | 0.0383 ± 0.12 |
| SAGGSAMPIELDLVIEIPIDAHPDQTVEDLVEEIAERIRRLLPPDTVVELRVHLHPELGVALADVSSAGGSA [r15_739_TrMRF] | 0.988 ± 0.081 |
| SAGGSAGGKLPKNIEKIEFNKKTNIIKVKVKSLEDLKKLAEKLNFEIVSVEEKDGYIYIKIKKKSAGGSAGG [r6_380_TrROS_Hall] | 2.47 ± 0.081 |
| SAGGAPLVPVSTETYTVKDSKGNEVTITIETLPDGSYRITITYPNGEVKEYEFPSKEEAEKLEITVNPSAGG [r13_109_JUSTAS] | 3.62 ± 0.14 |
| SKPTLTLKLTVVVKDENGEKKTVTLTIPVSEEELEKLLKEIAKELGLKDVKVVKIEKNKNGFIKITVEVKSA [r9_1101_TrROS_Hall] | 2.36 ± 0.21 |
| SAGGMIEKIKEAAKKLGLKVKIEEVKFDKKTKKVTIKITLENGKKIEITVEMSEEELLNAIKELIKKSAGGS [r16_153_TrROS_Hall] | 3.34 ± 0.14 |
| SAGGSAGGMPVEVTETPVGTFPDGSTVTRTETVLPGGEVLVETTVTYPDGSSTTTTRRVPPELASAGGSAGG [r6_263_JUSTAS] | 2.43 ± 0.092 |
| SAGGSPIQTAVTTNTLGNETITTTTLVPPEAVATSVTTVYEPDPNSDNYVVKSVLTTTTSTLPPSDAASAGG [r13_568_JUSTAS] | -0.0865 ± 0.062 |
| SAGGSPDIKFNEVKVELPTAETEAEFEKNTYKVEVPAPPELDITTTTTLTTSSGSTTTTTSTSPLELPSAGG [r13_191_JUSTAS] | -0.304 ± 0.11 |
